As usually defined, the stoichiometry N is a count of units in the complex or per binding partner.

Data set [1] deals with the molecule itself. Briefly: cryo-EM structure.
Data set [2] deals with the molecule itself. Briefly: cryo-EM structure. This is another data set of the same source.

Substitutions are numbered along the chain they refer to. Names and notes keep the numbering of the source. Read-outs that look alike come from different tables or passages of the source.

B1: Campylobacter jejuni MotB (natural protein, UniProt Q0PBH3 1-247, looked up)
chain: MAKKHKCPECPAGEKWAVPYADFLSLLLALFIALWAISKTNPAKVEALKTEFVKIFDYTSTQTVKEESKTQEKYKGAAKEESDELKSLKQMTMTQQETIKRLQAALDQSDNQVALNLPSKVEFERGSAQIVSADIQDYLKRMAELTTYLPPQAKIEIRGYTDNSDSIIRSYELAYQRAENVLKYFIEGGANLKNISIKSYGLNNPINGNPQTLENNRVEIYFKVDTADTSTQKSVLELINKIGTKAP
For B1, the “stoichiometry N” value in “cryo-EM structure [1]” worked out at 2.

B2: Vibrio alginolyticus PomB (natural protein, UniProt O06874 1-315, looked up)
chain: MDDEDNKCDCPPPGLPLWMGTFADLMSLLMCFFVLLLSFSEMDVLKFKQIAGSMKFAFGVQNQLEVKDIPKGTSIIAQEFRPGRPEPTPIDVIMQQTMDITQQTLEFHEGESDRAGGTKRDEGKLTGGQSPATSTQNNESAEADMQQQQSKEMSQEMETLMESIKKALEREIEQGAIEVENLGQQIVIRMREKGAFPEGSAFLQPKFRPLVRQIAELVKDVPGIVRVSGHTDNRPLDSELYRSNWDLSSQRAVSVAQEMEKVRGFSHQRLRVRGMADTEPLLPNDSDDNRALNRRVEISIMQGEPLYSEEVPVIQ
Turning to B2, the “stoichiometry N” value in the data set “cryo-EM structure [2]” is 2.

B3: Campylobacter jejuni MotB(Δ41-60) (natural protein, UniProt Q0PBH3 1-247, looked up)
chain: MAKKHKCPECPAGEKWAVPYADFLSLLLALFIALWAISKTTQTVKEESKTQEKYKGAAKEESDELKSLKQMTMTQQETIKRLQAALDQSDNQVALNLPSKVEFERGSAQIVSADIQDYLKRMAELTTYLPPQAKIEIRGYTDNSDSIIRSYELAYQRAENVLKYFIEGGANLKNISIKSYGLNNPINGNPQTLENNRVEIYFKVDTADTSTQKSVLELINKIGTKAP
On to B3, for which the binding result in the data set “cryo-EM structure [1]” was “binds”.

B4: Campylobacter jejuni MotB(Δ41-60, D22N) (natural protein, UniProt Q0PBH3 1-247, looked up)
chain: B3 chain with D22N
On to B4, for which, in the data set “cryo-EM structure [1]”, the binding result is “binds”.

Source of the values: article doi:10.1101/2020.05.15.096610 (bioRxiv, 2020).
